Biological target: acetylated α-tubulin
Test: cell-based or functional assay

For “histone deacetylase 6 (HDAC6), full-length, His6 fused at N-terminal (from UniProt Q9UBN7 1-1215)”, the decrease in degree of acetylation of α-tubulin (Western blot of HeLa cells overexpressing HDAC6) was 50%.
